Experimental data: the RNAGym collection of RNA variant scans (doi:10.1021/acssynbio.7b00057)

B1: Pistol ribozyme (parent)
chain: GGGUCGUUGUUCCAUAAUCGCGUGGAUAUGGCACGCAAGUUUCUACCGGGCACCGUAAAUGUCCGACUGGAGCCGUUCGGGCGGCUAUAAACAGACCUCAGGCCCGAAGCGUGGCGGCACCUGCCGCCGGUGGUAAAAAAGAUCGGAAGAGCACACGUCU

Variants of: B1
Experiment: aptazyme ON/OFF ratio, guanine; higher = stronger switching; co-transcriptional cleavage with and without guanine

| Variant | aptazyme ON/OFF ratio |
| --- | --- |
| GGGUCGUCAGGAGAUAAUCGCGUGGAUAUGGCACGCAAGUUUCUACCGGGCACCGUAAAUGUCCGACUGGAGCCGUUCGGGCGGCUAUAAACAGACCUCAGGCCCGAAGCGUGGCGGCACCUGCCGCCGGUGGUAAAAAAGAUCGGAAGAGCACACGUCU | 1.14 |
| GGGUCGUCAGGAAAUAAUCGCGUGGAUAUGGCACGCAAGUUUCUACCGGGCACCGUAAAUGUCCGACUGGAGCCGUUCGGGCGGCUAUAAACAGACCUCAGGCCCGAAGCGUGGCGGCACCUGCCGCCGGUGGUAAAAAAGAUCGGAAGAGCACACGUCU | 1.15 |
| GGGUCGUCAGGAUAUAAUCGCGUGGAUAUGGCACGCAAGUUUCUACCGGGCACCGUAAAUGUCCGACUGGAGCCGUUCGGGCGGCUAUAAACAGACCUCAGGCCCGAAGCGUGGCGGCACCUGCCGCCGGUGGUAAAAAAGAUCGGAAGAGCACACGUCU | 1.2 |
| GGGUCGUCAGGUCAUAAUCGCGUGGAUAUGGCACGCAAGUUUCUACCGGGCACCGUAAAUGUCCGACUGGAGCCGUUCGGGCGGCUAUAAACAGACCUCAGGCCCGAAGCGUGGCGGCACCUGCCGCCGGUGGUAAAAAAGAUCGGAAGAGCACACGUCU | 1.24 |
| GGGUCGUCAGGACAUAAUCGCGUGGAUAUGGCACGCAAGUUUCUACCGGGCACCGUAAAUGUCCGACUGGAGCCGUUCGGGCGGCUAUAAACAGACCUCAGGCCCGAAGCGUGGCGGCACCUGCCGCCGGUGGUAAAAAAGAUCGGAAGAGCACACGUCU | 1.12 |
| GGGUCGUCAGGGCAUAAUCGCGUGGAUAUGGCACGCAAGUUUCUACCGGGCACCGUAAAUGUCCGACUGGAGCCGUUCGGGCGGCUAUAAACAGACCUCAGGCCCGAAGCGUGGCGGCACCUGCCGCCGGUGGUAAAAAAGAUCGGAAGAGCACACGUCU | 1.21 |
| GGGUCGUCAGGCUAUAAUCGCGUGGAUAUGGCACGCAAGUUUCUACCGGGCACCGUAAAUGUCCGACUGGAGCCGUUCGGGCGGCUAUAAACAGACCUCAGGCCCGAAGCGUGGCGGCACCUGCCGCCGGUGGUAAAAAAGAUCGGAAGAGCACACGUCU | 1.09 |
| GGGUCGUCAGGCAAUAAUCGCGUGGAUAUGGCACGCAAGUUUCUACCGGGCACCGUAAAUGUCCGACUGGAGCCGUUCGGGCGGCUAUAAACAGACCUCAGGCCCGAAGCGUGGCGGCACCUGCCGCCGGUGGUAAAAAAGAUCGGAAGAGCACACGUCU | 1.15 |
| GGGUCGUCAGGCGAUAAUCGCGUGGAUAUGGCACGCAAGUUUCUACCGGGCACCGUAAAUGUCCGACUGGAGCCGUUCGGGCGGCUAUAAACAGACCUCAGGCCCGAAGCGUGGCGGCACCUGCCGCCGGUGGUAAAAAAGAUCGGAAGAGCACACGUCU | 1.13 |
| GGGUCGUCAUACCAUAAUCGCGUGGAUAUGGCACGCAAGUUUCUACCGGGCACCGUAAAUGUCCGACUGGAGCCGUUCGGGCGGCUAUAAACAGACCUCAGGCCCGAAGCGUGGCGGCACCUGCCGCCGGUGGUAAAAAAGAUCGGAAGAGCACACGUCU | 1.25 |
| GGGUCGUCAGGCCAUAAUCGCGUGGAUAUGGCACGCAAGUUUCUACCGGGCACCGUAAAUGUCCGACUGGAGCCGUUCGGGCGGCUAUAAACAGACCUCAGGCCCGAAGCGUGGCGGCACCUGCCGCCGGUGGUAAAAAAGAUCGGAAGAGCACACGUCU | 1.06 |
| GGGUCGUCAGGUAAUAAUCGCGUGGAUAUGGCACGCAAGUUUCUACCGGGCACCGUAAAUGUCCGACUGGAGCCGUUCGGGCGGCUAUAAACAGACCUCAGGCCCGAAGCGUGGCGGCACCUGCCGCCGGUGGUAAAAAAGAUCGGAAGAGCACACGUCU | 1.09 |
| GGGUCGUCAGGUGAUAAUCGCGUGGAUAUGGCACGCAAGUUUCUACCGGGCACCGUAAAUGUCCGACUGGAGCCGUUCGGGCGGCUAUAAACAGACCUCAGGCCCGAAGCGUGGCGGCACCUGCCGCCGGUGGUAAAAAAGAUCGGAAGAGCACACGUCU | 1.1 |
| GGGUCGUCAGGUUAUAAUCGCGUGGAUAUGGCACGCAAGUUUCUACCGGGCACCGUAAAUGUCCGACUGGAGCCGUUCGGGCGGCUAUAAACAGACCUCAGGCCCGAAGCGUGGCGGCACCUGCCGCCGGUGGUAAAAAAGAUCGGAAGAGCACACGUCU | 1.22 |
| GGGUCGUCAGGGAAUAAUCGCGUGGAUAUGGCACGCAAGUUUCUACCGGGCACCGUAAAUGUCCGACUGGAGCCGUUCGGGCGGCUAUAAACAGACCUCAGGCCCGAAGCGUGGCGGCACCUGCCGCCGGUGGUAAAAAAGAUCGGAAGAGCACACGUCU | 1.1 |
| GGGUCGUCAGGGUAUAAUCGCGUGGAUAUGGCACGCAAGUUUCUACCGGGCACCGUAAAUGUCCGACUGGAGCCGUUCGGGCGGCUAUAAACAGACCUCAGGCCCGAAGCGUGGCGGCACCUGCCGCCGGUGGUAAAAAAGAUCGGAAGAGCACACGUCU | 1.11 |
| GGGUCGUCAGGGGAUAAUCGCGUGGAUAUGGCACGCAAGUUUCUACCGGGCACCGUAAAUGUCCGACUGGAGCCGUUCGGGCGGCUAUAAACAGACCUCAGGCCCGAAGCGUGGCGGCACCUGCCGCCGGUGGUAAAAAAGAUCGGAAGAGCACACGUCU | 1.09 |
| GGGUCGUCAUAACAUAAUCGCGUGGAUAUGGCACGCAAGUUUCUACCGGGCACCGUAAAUGUCCGACUGGAGCCGUUCGGGCGGCUAUAAACAGACCUCAGGCCCGAAGCGUGGCGGCACCUGCCGCCGGUGGUAAAAAAGAUCGGAAGAGCACACGUCU | 1.25 |
